Broadly, the Km is the substrate concentration at which the rate is half of its maximum. Usually kcat stands for the number of substrate molecules converted per active site and unit of time at saturation.

Substrate in data set [1]: COC(=O)Cc1cc(=O)oc2cc(OP(=O)(O)O)ccc12
Substrate in data set [2]: COC(=O)[C@H](Cc1ccc(OP(=O)(O)O)cc1)NC(=O)Cc1cc(=O)oc2cc(OP(=O)(O)O)ccc12
Substrate in data set [3]: NC(=O)Cc1cc(=O)oc2cc(OP(=O)(O)O)ccc12
Substrate in data set [4]: NC(=O)[C@H](Cc1ccc(OP(=O)(O)O)cc1)NC(=O)Cc1cc(=O)oc2cc(OP(=O)(O)O)ccc12
Substrate in data set [5]: O=C(Cc1cc(=O)oc2cc(OP(=O)(O)O)ccc12)NCCc1ccc(O)cc1
Substrate in data set [6]: O=C(Cc1cc(=O)oc2cc(OP(=O)(O)O)ccc12)NCCc1ccc(OP(=O)(O)O)cc1
Substrate in data set [7]: O=C(Cc1cc(=O)oc2cc(OP(=O)(O)O)ccc12)NCc1ccc(OP(=O)(O)O)cc1
Substrate in data set [8]: O=C(Cc1cc(=O)oc2cc(OP(=O)(O)O)ccc12)OCc1ccccc1
Substrate in data set [9]: O=C(O)CCNC(=O)Cc1cc(=O)oc2cc(OP(=O)(O)O)ccc12

B1: Tyrosine-protein phosphatase non-receptor type 1 (Homo sapiens), P18031 (protein)
chain: MEMEKEFEQIDKSGSWAAIYQDIRHEASDFPCRVAKLPKNKNRNRYRDVSPFDHSRIKLHQEDNDYINASLIKMEEAQRSYILTQGPLPNTCGHFWEMVWEQKSRGVVMLNRVMEKGSLKCAQYWPQKEEKEMIFEDTNLKLTLISEDIKSYYTVRQLELENLTTQETREILHFHYTTWPDFGVPESPASFLNFLFKVRESGSLSPEHGPVVVHCSAGIGRSGTFCLADTCLLLMDKRKDPSSVDIKKVLLEMRKFRMGLIQTADQLRFSYLAVIEGAKFIMGDSSVQDQWKELSHEDLEPPPEHIPPPPRPPKRILEPHNGKCREFFPNHQWVKEETQEDKDCPIKEEKGSPLNAAPYGIESMSQDTEVRSRVVGGSLRGAQAASPAKGEPSLPEKDEDHALSYWKPFLVNMCVATVLTAGAYLCYRFLFNSNT
On to B1, for which the Km in [1] came out at 147 µM; in data set [2], 82 µM; in [3], 224 µM; in data set [4] it was 149 µM; in [6] it was 38 µM; in data set [7], 25 µM. Moreover, the Km is 36 µM in [8] and 111 µM in [9]. Besides, the kcat in data set [1] is 8.2 s⁻¹; in data set [2], 3.4 s⁻¹; in data set [3], 5 s⁻¹; in data set [4], 3.2 s⁻¹; in data set [5], 4.8 s⁻¹; in data set [6], 7.1 s⁻¹. In addition, the kcat in data set [7] was 5.2 s⁻¹; in data set [8], 10.5 s⁻¹; in [9], 5.8 s⁻¹.

Source of the values: ChEMBL document CHEMBL1143079, “Designing better coumarin-based fluorogenic substrates for PTP1B” (Bioorg Med Chem Lett, 2008).
